T1: human CXCL13 (human, UniProt O43927 23-109)
T1 construct: also called huCXCL13; rhCXCL13
T1 sequence (looked up): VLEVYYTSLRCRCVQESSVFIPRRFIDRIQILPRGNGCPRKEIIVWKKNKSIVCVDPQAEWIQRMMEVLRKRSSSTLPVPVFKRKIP

T2: mouse CXCL13 (mouse, UniProt O55038 22-109)
T2 construct: also called rmCXCL13
T2 sequence (looked up): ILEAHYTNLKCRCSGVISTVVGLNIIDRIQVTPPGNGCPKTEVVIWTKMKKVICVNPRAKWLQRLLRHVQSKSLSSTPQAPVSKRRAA

T3: cynomolgus CXCL13 (cynomolgus, UniProt H6WS58 23-109)
T3 construct: also called cynoCXCL13; Cyno CXCL13
T3 sequence: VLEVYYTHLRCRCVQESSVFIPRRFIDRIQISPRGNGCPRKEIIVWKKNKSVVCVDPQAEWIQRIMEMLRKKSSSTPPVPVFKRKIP


Tests used:
[1] = molecular target: T1, human CXCL13; test: SPR Biacore 8K, Fab over immobilised CXCL13
Protocol: Among all humanized Fab samples, 71F4A3-VH2VL1, 71F4A3-VH1VL1 (Hz71F4), 71F4A3-VH1VL2, 71F4A3-VH3VL1, 411A11E9-VH1VL4, 411A11E9-VH3VL4, 411A11E9-VH2VL4, 411A11E9-VH3VL2, 411A11E9-VH1VL2, 21H12D9-VH1VL1, 21H12D9-VH2VL2, 21H12D9-VH3VL3, 21H12D9-VH1VL2, 64C10G1-VH1VL3, 64C10G1-VH1VL4, 64C10G1-VH1VL1, 64C10G1-VH1VL2 were selected to test affinity by Biacore 8K. 10 mM HEPES, 150 mM NaCl, 3 mM EDTA, 0.05% Tween-20, pH 7.4 served as running buffer and 10 mM glycine-HCl, pH2.0 served as regeneration buffer. CXCL13 protein were immobilized on Sensor Chip CM5 using amine coupling method (immobilization level ˜250RU). The serial concentrations of Fab (0-20 nM) were injected over immobilized CXCL13 at the flow rate of 30 μl/min. The dissociation phases were 600s.

[2] = molecular target: T1, human CXCL13; test: SPR Biacore, off-rate ranking of Fabs
[3] = molecular target: T1, human CXCL13; test: ELISA, coated antigen
[4] = molecular target: T2, mouse CXCL13; test: ELISA, coated antigen
[5] = molecular target: T3, cynomolgus CXCL13; test: ELISA, coated antigen

| Binder | Kd [1] [nM] | koff [1] [s⁻¹] | kon [1] [M⁻¹ s⁻¹] | Kd [2] [nM] | koff [2] [s⁻¹] | kon [2] [M⁻¹ s⁻¹] | EC50 [3] [µg/mL] | binding result [4] | EC50 [5] [µg/mL] |
| --- | --- | --- | --- | --- | --- | --- | --- | --- | --- |
| 411A11E9-VH1VL2 (Fab, V domains shown, Humanized Fab, human gamma 1 and kappa constant domains) VH: EVQLVESGGGLVQPGGSLRLSCAASGFTFSDYYMAWVRQAPGKGLEWVASINYDGGDTYYRDSVKGRFTISRDNAKNSLYLQMNSLRAEDTAVYYCAREEDYDGSYVMDAWGQGTLVTVSS VL: DIQMTQSPSSLSASVGDRVTITCKASQNINKELTWYQQKPGKAPKRLIYNTNILQTGVPSRFSGSGSGTEFTLTISSLQPEDFATYFCLQQSSLYTFGQGTKLEIK | 2.83 | 0.00161 | 570000 | 14.5 | 0.00114 | 78200 | – | – | – |
| 411A11E9-VH1VL4 (Fab, V domains shown, Humanized Fab, human gamma 1 and kappa constant domains) VH: EVQLVESGGGLVQPGGSLRLSCAASGFTFSDYYMAWVRQAPGKGLEWVASINYDGGDTYYRDSVKGRFTISRDNAKNSLYLQMNSLRAEDTAVYYCAREEDYDGSYVMDAWGQGTLVTVSS VL: DIQMTQSPSSLSASVGDRVTITCKASQNINKELTWYQQKPGKAPKRLIYNTNILQTGIPSRFSGSGSGTEYTLTISSLQPEDFATYFCLQQSSLYTFGQGTKLEIK | 0.844 | 0.00157 | 1.86e+06 | 1.82 | 0.00063 | 346000 | – | – | – |
| 21H12D9-VH2VL2 (Fab, V domains shown, Humanized Fab, human gamma 1 and kappa constant domains; also called 21VH12D9-VH2VL2) VH: QVQLVQSGAEVVKPGASVKVSCKASGYTFTDYYMNWVRQAPGQGLEWMGVINPNNGGTTYKEKFKGRVTMTVDTSISTAYMELSRLRSDDTAVYYCARDDYDAGYWGQGTLVTVSS VL: DIQMTQSPSSVSTSVGDRVTITCKASQNVDTAVAWYQQKPGKAPKLLIYSASHRYTGVPSRFSGSGSGTDFTLTISSLQPEDFATYYCQQYTDFPLTFGQGTRLEIK | 1.32 | 0.00195 | 1.48e+06 | 1.94 | 0.000802 | 414000 | – | – | – |
| 21H12D9-VH4VL1 (Fab, V domains shown, Humanized Fab, human gamma 1 and kappa constant domains; also called 21VH12D9-VH4VL1) VH: QVQLVQSGAEVVKPGASVKMSCKASGYTFTDYYMNWVRQAPGQGLEWIGVINPNNGGTTYKEKFKGRATLTVDTSIGTAYMELSRLRSDDTAVYYCARDDYDAGYWGQGTLLTVSS VL: DIQMTQSPSSVSASVGDRVTITCKASQNVDTAVAWYQQKPGKAPKLLIYSASHRYTGVPSRFSGSGSGTDFTLTISSLQPEDFATYYCQQYTDFPLTFGQGTRLEIK | – | – | – | 1.73 | 0.00107 | 618000 | – | – | – |
| 21H12D9-VH1VL2 (Fab, V domains shown, Humanized Fab, human gamma 1 and kappa constant domains; also called 21VH12D9-VH1VL2) VH: QVQLVQSGAEVKKPGASVKVSCKASGYTFTDYYMNWVRQAPGQGLEWMGVINPNNGGTTYKEKFKGRVTMTRDTSISTAYMELSRLRSDDTAVYYCARDDYDAGYWGQGTLVTVSS VL: DIQMTQSPSSVSTSVGDRVTITCKASQNVDTAVAWYQQKPGKAPKLLIYSASHRYTGVPSRFSGSGSGTDFTLTISSLQPEDFATYYCQQYTDFPLTFGQGTRLEIK | 1.19 | 0.00171 | 1.44e+06 | 1.99 | 0.000757 | 380000 | – | – | – |
| 368D6D10 (antibody, V domains shown, Hybridoma mAb) VH: DVQLQESGPGLVKPSQSLSLTCTVTGYSITSDYAWNWIRQFPGNKLEWMGYISYSGSTSYNPSLKSRISITRDTSKNQFFLQLNSVTTEDTATYYCVAGHFDYWGQGTTLTVSS VL: not shown | – | – | – | – | – | – | 0.0864 | no binding | 0.14 |
| 367F1C2 (antibody, V domains shown, Hybridoma mAb) VH: DVQLQESGPGLVKPSQSLSLTCTVTGYSITSDYAWNWIRHFPGNKLEWMGYISYTGSSSYNPSLKSRISITRDTSKNQFFLQLNSVTSEDTATYYCVAGHFDYWGPGTTLTVSS VL: not shown | – | – | – | – | – | – | 0.0668 | no binding | 0.0557 |
| 353F9C4 (antibody, V domains shown, Hybridoma mAb) VH: DVQLQESGPGLVKPSQSLSLTCTVTGYSITSDYAWSWIRQFPGNKLEWMGYITYSDSTSYNPSLKSRISITRDTSKNQFFLQLNSVTAEDTATYYCAAGHFDYWGQGTILTVSS VL: not shown | – | – | – | – | – | – | 0.135 | no binding | 0.172 |
| 348E12F12 (antibody, V domains shown, Hybridoma mAb) VH: DVQLQESGPGLVKPSQSLSLTCTVTGYSITSDYAWNWIRQFPGNKLEWMGYISYSGDTSYNPSLKSRISITRDTSKNQFFLQLNSVTTEDTATYYCVAGHFDYWGQGTTLTVSS VL: not shown | – | – | – | – | – | – | 0.0636 | no binding | 0.0765 |
| 355A1F6 (antibody, V domains shown, Hybridoma mAb) VH: DVQLQESGPGLVKPSQSLSLTCTVTGYSITSDYAWSWIRQFPGNKLEWMGYISYSDSTSYNPSLKSRISITRDTSKNQFFLQLNSVTAEDTATYYCAAGHFDYWGQGTILTVSS VL: not shown | – | – | – | – | – | – | 0.0943 | no binding | 0.154 |

Continued by falling Kd [2], values first:

| Kd [1] [nM] | koff [1] [s⁻¹] | kon [1] [M⁻¹ s⁻¹] | Kd [2] [nM] | koff [2] [s⁻¹] | kon [2] [M⁻¹ s⁻¹] | EC50 [3] [µg/mL] | binding result [4] | EC50 [5] [µg/mL] | Binder |
| --- | --- | --- | --- | --- | --- | --- | --- | --- | --- |
| – | – | – | 1.59 | 0.00116 | 729000 | – | – | – | 21H12D9-VH4VL3 (Fab, V domains shown, Humanized Fab, human gamma 1 and kappa constant domains; also called 21VH12D9-VH4VL3) VH: QVQLVQSGAEVVKPGASVKMSCKASGYTFTDYYMNWVRQAPGQGLEWIGVINPNNGGTTYKEKFKGRATLTVDTSIGTAYMELSRLRSDDTAVYYCARDDYDAGYWGQGTLLTVSS VL: DIQMTQSPSSVSTSVGDRVTITCKASQNVDTAVAWYQQKPGKAPKLLIYSASHRYTGVPSRFSGSGSGTDFTLTISSVQPEDFATYYCQQYTDFPLTFGQGTRLEIK |
| – | – | – | 1.54 | 0.00114 | 742000 | – | – | – | 21H12D9-VH4VL2 (Fab, V domains shown, Humanized Fab, human gamma 1 and kappa constant domains; also called 21VH12D9-VH4VL2) VH: QVQLVQSGAEVVKPGASVKMSCKASGYTFTDYYMNWVRQAPGQGLEWIGVINPNNGGTTYKEKFKGRATLTVDTSIGTAYMELSRLRSDDTAVYYCARDDYDAGYWGQGTLLTVSS VL: DIQMTQSPSSVSTSVGDRVTITCKASQNVDTAVAWYQQKPGKAPKLLIYSASHRYTGVPSRFSGSGSGTDFTLTISSLQPEDFATYYCQQYTDFPLTFGQGTRLEIK |
| 1.22 | 0.00182 | 1.49e+06 | 1.47 | 0.00207 | 1.41e+06 | – | – | – | 21H12D9-VH3VL3 (Fab, V domains shown, Humanized Fab, human gamma 1 and kappa constant domains; also called 21VH12D9-VH3VL3) VH: QVQLVQSGAEVVKPGASVKVSCKASGYTFTDYYMNWVRQAPGQGLEWIGVINPNNGGTTYKEKFKGRATLTVDTSISTAYMELSRLRSDDTAVYYCARDDYDAGYWGQGTLVTVSS VL: DIQMTQSPSSVSTSVGDRVTITCKASQNVDTAVAWYQQKPGKAPKLLIYSASHRYTGVPSRFSGSGSGTDFTLTISSVQPEDFATYYCQQYTDFPLTFGQGTRLEIK |
| 1.23 | 0.00203 | 1.66e+06 | 1.33 | 0.00323 | 2.42e+06 | – | – | – | 21H12D9-VH1VL1 (Fab, V domains shown, Humanized Fab, human gamma 1 and kappa constant domains; also called 21VH12D9-VH1VL1) VH: QVQLVQSGAEVKKPGASVKVSCKASGYTFTDYYMNWVRQAPGQGLEWMGVINPNNGGTTYKEKFKGRVTMTRDTSISTAYMELSRLRSDDTAVYYCARDDYDAGYWGQGTLVTVSS VL: DIQMTQSPSSVSASVGDRVTITCKASQNVDTAVAWYQQKPGKAPKLLIYSASHRYTGVPSRFSGSGSGTDFTLTISSLQPEDFATYYCQQYTDFPLTFGQGTRLEIK |
| 1.2 | 0.00126 | 1.05e+06 | 0.919 | 0.00163 | 1.78e+06 | – | – | – | 411A11E9-VH3VL2 (Fab, V domains shown, Humanized Fab, human gamma 1 and kappa constant domains) VH: EVQLVESGGGLVQPGGSLRLSCAVSGFTFSDYYMAWVRQAPGKGLEWVASINYDGGDTYYRDSVKGRFTISRDNAKNSLYLQMNSLRAEDTAVYYCATEEDYDGSYVMDAWGQGTLVTVSS VL: DIQMTQSPSSLSASVGDRVTITCKASQNINKELTWYQQKPGKAPKRLIYNTNILQTGVPSRFSGSGSGTEFTLTISSLQPEDFATYFCLQQSSLYTFGQGTKLEIK |
| 0.931 | 0.000887 | 953000 | 0.634 | 0.00105 | 1.66e+06 | – | – | – | 411A11E9-VH2VL4 (Fab, V domains shown, Humanized Fab, human gamma 1 and kappa constant domains) VH: EVQLVESGGGLVQPGGSLRLSCAASGFTFSDYYMAWVRQAPGKGLEWVASINYDGGDTYYRDSVKGRFTISRDNAKNSLYLQMNSLRAEDTAVYYCATEEDYDGSYVMDAWGQGTLVTVSS VL: DIQMTQSPSSLSASVGDRVTITCKASQNINKELTWYQQKPGKAPKRLIYNTNILQTGIPSRFSGSGSGTEYTLTISSLQPEDFATYFCLQQSSLYTFGQGTKLEIK |
| 0.908 | 0.000823 | 906000 | 0.498 | 0.00109 | 2.19e+06 | – | – | – | 411A11E9-VH3VL4 (Fab, V domains shown, Humanized Fab, human gamma 1 and kappa constant domains) VH: EVQLVESGGGLVQPGGSLRLSCAVSGFTFSDYYMAWVRQAPGKGLEWVASINYDGGDTYYRDSVKGRFTISRDNAKNSLYLQMNSLRAEDTAVYYCATEEDYDGSYVMDAWGQGTLVTVSS VL: DIQMTQSPSSLSASVGDRVTITCKASQNINKELTWYQQKPGKAPKRLIYNTNILQTGIPSRFSGSGSGTEYTLTISSLQPEDFATYFCLQQSSLYTFGQGTKLEIK |
